Results: PMC8890709

How the values were obtained:
[1] = target: GmALMT12/QUAC1 (aluminum-activated malate transporter 12 / quick anion channel 1 from Glycine max) (Glycine max (soybean)); assay: cryo-EM structure
[2] = target: GmALMT12/QUAC1 cytoplasmic helical domain (CHD, residues 221 to 537), wild type (Glycine max (soybean)); assay: SEC

Substance | stoichiometry N [1] | stoichiometry N [2]
GmALMT12/QUAC1 (aluminum-activated malate transporter 12 / quick anion channel 1 from Glycine max) (natural protein) | 2 | –
GmALMT12/QUAC1 cytoplasmic helical domain (CHD, residues 221 to 537), wild type (domain or fragment) | – | 2
